Test results taken from patent US20220251562, “Anti-CD3 Aptamers for Use in Cell Targeting and Labeling” (Ixaka France, published 2022).

Columns and labels:
[1] = target: T1, CD3 epsilon/delta heterodimer (Homo sapiens, UniProt P07766;P04234 P07766:23-126,P04234:22-105); test: SPR; same value in Table 3; conditions: tags: C-terminal human IgG1 Fc fusion, AcroBiosystems; chain copies: heterodimer 1:1 (inferred); label: 5'-biotin-TEG
Method: (§1) Binding affinity measurements were performed using a BIAcore T200 instrument (GE Healthcare). To analyze interactions between aptamers and CD3 proteins, 1000 Resonance Units of biotinylated aptamers were immobilized on Series S Sensor chips SA (GE Healthcare) according to manufacturer's instructions (GE Healthcare). SELEX buffer was used as the running buffer. The interactions were measured in the “Single Kinetics Cycle” mode at a flow rate of 30 μl/min and by injecting different concentrations of human CD3 ε/γ, CD3 ε/δ, IgG1 Fc and mouse CD3 ε/δ (Sino Biological). The highest protein concentration used was 100 nM. Other concentrations were obtained by 3-fold dilution. All kinetic data of the interaction were evaluated using the BIAcore T200 evaluation software. Table 3 below provides a summary of KD values obtained from surface plasmon resonance measurements.
(§2) Further, it was observed that compared to the aptamer CELTIC_1 (CD3-1 in Table 1), CELTIC_1s (CD3-1s) bound to the CD3 proteins more strongly. Table 4 below provides a summary of KD values obtained from another set of surface plasmon resonance measurements. It includes KD values of the first five aptamers with and without flanking regions.

[2] = target: T2, CD3 epsilon/gamma heterodimer (Homo sapiens, UniProt P07766;P09693 P07766:23-126,P09693:23-116); test: SPR; same value in Table 3; conditions: tags: C-terminal human IgG1 Fc fusion, AcroBiosystems; chain copies: heterodimer 1:1 (inferred); label: 5'-biotin-TEG
T2 sequence (P07766 23-126, chain 1 of 2): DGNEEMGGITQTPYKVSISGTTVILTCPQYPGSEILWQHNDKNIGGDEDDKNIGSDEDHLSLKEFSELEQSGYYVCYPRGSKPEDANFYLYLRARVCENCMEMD
T2 sequence (P09693 23-116, chain 2 of 2): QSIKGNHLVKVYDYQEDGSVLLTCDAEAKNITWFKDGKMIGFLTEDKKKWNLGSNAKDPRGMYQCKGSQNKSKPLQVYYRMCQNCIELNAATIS
Method: as §1, §2

IgG1 Fc (counter target) [3] = target: T3, IgG1 Fc (counter target) (Homo sapiens, UniProt P01857-1 P01857-1:100-330); test: SPR; no interaction observed; conditions: tags: AcroBiosystems; chain copies: 2; label: 5'-biotin-TEG
Method: as §1

[4] = target: T1, CD3 epsilon/delta heterodimer; test: SPR; steady state; kinetic 3.2 nM (Table 6); conditions: tags: C-terminal human IgG1 Fc fusion, AcroBiosystems; chain copies: heterodimer 1:1 (inferred); label: 5'-biotin-TEG
Method: as §1

[5] = target: T2, CD3 epsilon/gamma heterodimer; test: SPR; steady state; kinetic 3.9 nM (Table 6); conditions: tags: C-terminal human IgG1 Fc fusion, AcroBiosystems; chain copies: heterodimer 1:1 (inferred); label: 5'-biotin-TEG
Method: as §1

[6] = target: T2, CD3 epsilon/gamma heterodimer; test: SPR; steady state; kinetic 104 pM (Table 8); conditions: tags: C-terminal human IgG1 Fc fusion, AcroBiosystems; chain copies: heterodimer 1:1 (inferred); label: biotin; G4 predicted
Method: (§3) Binding affinity measurements with the most interesting anti-CD3 aptamers derived from the core sequence were performed using a BIAcore T200 instrument (GE Healthcare) as already described in Example 4. To analyze interactions between aptamers and CD3 proteins, biotinylated aptamers were immobilized at a lower density than in Example 4 (100-500 RU) on Series S Sensor chips SA (GE Healthcare) according to manufacturer's instructions (GE Healthcare). Mouse and Cynomolgus CD3 ε/δ were purchased from AcroBiosystems. For human proteins, the highest concentration used was 100 nM and 1 μM for mouse and cynomolgus antigens. Other concentrations were obtained by 3-fold dilutions.
(§4) Table 9 below provides a summary of KD values obtained from surface plasmon resonance measurements performed with human CD3 ε/γ and mouse and cynomolgus CD3 ε/δ. […] In these conditions, 3′-3′ deoxy-thymidine-modified versions of the latest four aptamers performed equally well. All these sequenced-optimized aptamers were able to bind the murine and cynomolgus CD3 ε/δ isoforms confirming the cross-specificity of the CD3 aptamers already observed in Examples 3 and 5.

[7] = target: T1, CD3 epsilon/delta heterodimer; test: SPR; kinetic; conditions: tags: C-terminal human IgG1 Fc fusion, AcroBiosystems; chain copies: heterodimer 1:1 (inferred); label: biotin; G4 predicted
Method: as §3
(§5) Table 8 below provides a summary of KD values obtained from surface plasmon resonance measurements. […] Variants of the core sequence identified in cell binding assays (CELTIC_core_12, CELTIC_core_24, CELTIC_core_29, CELTIC_core_40 and CELTIC_core_42) were all confirmed to have better affinities than the unmodified aptamer with human CD3 ε/γ. As already observed in Example 4, the affinities were in general slightly lower with CD3 ε/δ which is a consequence of the SELEX strategy that included more rounds on the CD3 ε/γ isoform. None of these sequences did bind to the Fc region of human IgG1.

[8] = target: T2, CD3 epsilon/gamma heterodimer; test: SPR; steady state; kinetic 4.1 nM (Table 6); conditions: tags: C-terminal human IgG1 Fc fusion, AcroBiosystems; chain copies: heterodimer 1:1 (inferred); label: 5'-biotin-TEG
Method: as §1

[9] = target: T1, CD3 epsilon/delta heterodimer; test: SPR; steady state; kinetic 3.4 nM (Table 6); conditions: tags: C-terminal human IgG1 Fc fusion, AcroBiosystems; chain copies: heterodimer 1:1 (inferred); label: 5'-biotin-TEG
Method: as §1

[10] = target: T1, CD3 epsilon/delta heterodimer; test: SPR; NA; conditions: tags: C-terminal human IgG1 Fc fusion, AcroBiosystems; chain copies: heterodimer 1:1 (inferred); label: 5'-biotin-TEG
Method: as §1, §2

[11] = target: T2, CD3 epsilon/gamma heterodimer; test: SPR; NA; conditions: tags: C-terminal human IgG1 Fc fusion, AcroBiosystems; chain copies: heterodimer 1:1 (inferred); label: 5'-biotin-TEG
Method: as §1, §2

IgG1 Fc (counter target) [12] = target: T3, IgG1 Fc (counter target); test: SPR; no interaction observed; aptamer also NA for CD3; conditions: tags: AcroBiosystems; chain copies: 2; label: 5'-biotin-TEG
Method: as §1, §2

[13] = target: T1, CD3 epsilon/delta heterodimer; test: SPR; steady state; kinetic 3.7 nM (Table 6); conditions: tags: C-terminal human IgG1 Fc fusion, AcroBiosystems; chain copies: heterodimer 1:1 (inferred); label: 5'-biotin-TEG
Method: as §1

[14] = target: T2, CD3 epsilon/gamma heterodimer; test: SPR; steady state; kinetic 3.8 nM (Table 6); conditions: tags: C-terminal human IgG1 Fc fusion, AcroBiosystems; chain copies: heterodimer 1:1 (inferred); label: 5'-biotin-TEG
Method: as §1

[15] = target: T1, CD3 epsilon/delta heterodimer; test: SPR; steady state; kinetic fit suboptimal; conditions: tags: C-terminal human IgG1 Fc fusion, AcroBiosystems; chain copies: heterodimer 1:1 (inferred); label: 5'-biotin-TEG
Method: as §1

[16] = target: T2, CD3 epsilon/gamma heterodimer; test: SPR; steady state; kinetic fit suboptimal; conditions: tags: C-terminal human IgG1 Fc fusion, AcroBiosystems; chain copies: heterodimer 1:1 (inferred); label: 5'-biotin-TEG
Method: as §1

[17] = target: T1, CD3 epsilon/delta heterodimer; test: SPR; steady state; kinetic 23.3 nM (Table 6); conditions: tags: C-terminal human IgG1 Fc fusion, AcroBiosystems; chain copies: heterodimer 1:1 (inferred); label: 5'-biotin-TEG
Method: as §1

[18] = target: T1, CD3 epsilon/delta heterodimer; test: SPR; steady state; kinetic 8.2 nM (Table 6), 900 pM (Table 8); conditions: tags: C-terminal human IgG1 Fc fusion, AcroBiosystems; chain copies: heterodimer 1:1 (inferred); label: 5'-biotin-TEG
Method: as §1

[19] = target: T2, CD3 epsilon/gamma heterodimer; test: SPR; steady state; kinetic 9.5 pM (Table 6), 304 pM (Table 8); 99 nM steady state (Table 9); conditions: tags: C-terminal human IgG1 Fc fusion, AcroBiosystems; chain copies: heterodimer 1:1 (inferred); label: 5'-biotin-TEG
[20] = target: T1, CD3 epsilon/delta heterodimer; test: SPR; steady state; kinetic 41.1 nM (Table 6); conditions: tags: C-terminal human IgG1 Fc fusion, AcroBiosystems; chain copies: heterodimer 1:1 (inferred); label: 5'-biotin-TEG
Method: as §1

[21] = target: T2, CD3 epsilon/gamma heterodimer; test: SPR; steady state; kinetic 0.2 pM (Table 8); conditions: tags: C-terminal human IgG1 Fc fusion, AcroBiosystems; chain copies: heterodimer 1:1 (inferred); label: biotin; G4 predicted
Method: as §3, §4

IgG1 Fc (counter target) [22] = target: T3, IgG1 Fc (counter target); test: SPR; NA; conditions: tags: AcroBiosystems; chain copies: 2; label: biotin; G4 predicted
Method: as §3, §5

[23] = target: T1, CD3 epsilon/delta heterodimer; test: SPR; steady state; kinetic 2.7 nM (Table 6); conditions: tags: C-terminal human IgG1 Fc fusion, AcroBiosystems; chain copies: heterodimer 1:1 (inferred); label: 5'-biotin-TEG
Method: as §1

[24] = target: T2, CD3 epsilon/gamma heterodimer; test: SPR; steady state; kinetic 2.3 nM (Table 6); conditions: tags: C-terminal human IgG1 Fc fusion, AcroBiosystems; chain copies: heterodimer 1:1 (inferred); label: 5'-biotin-TEG
Method: as §1

[25] = target: T2, CD3 epsilon/gamma heterodimer; test: SPR; steady state; 43.6 nM (Table 3); kinetic 2.8 nM (Table 6); conditions: tags: C-terminal human IgG1 Fc fusion, AcroBiosystems; chain copies: heterodimer 1:1 (inferred); label: 5'-biotin-TEG
Method: as §1

[26] = target: T1, CD3 epsilon/delta heterodimer; test: SPR; steady state; 62.2 nM (Table 3); kinetic 3.4 nM (Table 6); conditions: tags: C-terminal human IgG1 Fc fusion, AcroBiosystems; chain copies: heterodimer 1:1 (inferred); label: 5'-biotin-TEG
Method: as §1

T1 sequence (P07766 23-126, stated change not applied, chain 1 of 2): as the sequence (P07766 23-126, chain 1 of 2) above
T1 sequence (P04234 22-105, stated change not applied, chain 2 of 2): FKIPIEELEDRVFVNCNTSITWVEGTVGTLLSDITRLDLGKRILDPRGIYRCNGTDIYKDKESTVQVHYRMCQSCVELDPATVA

B1: CELTIC_3 (ssDNA)
DNA: TAGGGAAGAGAAGGACATATGATGCGTAAGGGTTTGGCAGCGGGCCTGGCGGAACGCGTGTATTTGACTAGTACATGACCACTTGA
In the case of B1, the Kd [1] is reported as 86.5 nM and the Kd [2] is reported as 65.4 nM.

B2: CELTIC_11s (ssDNA)
DNA: GATGGAGGGTTTGGCGGTGGGCCTGGCAAGTTATCTCATA
B2 was tested, and the binding result (IgG1 Fc (counter target) [3]) was “no binding”, the Kd [4] was 138 nM and the Kd [5] was 94 nM.

B3: CELTIC_core_40t (ssDNA)
DNA: GGGTTTGGCATCGGGTCTGGC
modifications: 5'-HEG; 3'-3' dT
Work on B3 yielded a Kd [6] of 156 nM and a Kd [7] of 0.01 nM.

B4: CELTIC_4s (ssDNA)
DNA: GGAGTGGAGTATTCCGGGTTTGGCATCGGGCCTGGCGAAG
B4 was tested, and the Kd [8] was 117 nM, the binding result (IgG1 Fc (counter target) [3]) was “no binding” and the Kd [9] was 144 nM.

B5: CELTIC_1 (ssDNA)
DNA: TAGGGAAGAGAAGGACATATGATCCGGGTGGGGGTTTGGCACCGGGCCTGGCGCAGGGATTCGTTGACTAGTACATGACCACTTGA
B5: no binding [10]; no binding [11]; no binding (IgG1 Fc (counter target) [12]).

B6: CELTIC_9s (ssDNA)
DNA: GCATCGAAATGGGGTTGGCACCGGGCCTGGCGAATTGGAT
With B6 the Kd [13] was 60.5 nM, the Kd [14] was 47.3 nM and the binding result (IgG1 Fc (counter target) [3]) was “no binding”.

B7: CELTIC_6s (ssDNA)
DNA: AAGGGATTGGCGTCGGGCCTGGCGTAAGGAGGCTATGCTC
In the case of B7, the Kd [15] is reported as 168 nM, the Kd [16] is reported as 287 nM and the binding result (IgG1 Fc (counter target) [3]) is reported as “no binding”.

B8: CELTIC_21s (ssDNA)
DNA: GGTCGGGTGCTACTGAGCGATTGGCTTTCCGGACTGGGGA
B8 was tested, and the Kd [17] was 405 nM, the Kd [16] was 155 nM and the binding result (IgG1 Fc (counter target) [3]) was “no binding”.

B9: CELTIC_19s (ssDNA)
DNA: TACCGCGGGGATTGGCTCCGGGCCTGGCGTCGTAATCTGA
In the case of B9, the binding result (IgG1 Fc (counter target) [3]) is reported as “no binding”, the Kd [18] is reported as 150 nM and the Kd [19] is reported as 104 nM.

B10: CELTIC_2 (ssDNA)
DNA: TAGGGAAGAGAAGGACATATGATGAGGGGTTTGGCATCGGGCCTGGCGCCATTCAAGCTATGCTTGACTAGTACATGACCACTTGA
B10: no binding [10]; no binding [11]; no binding (IgG1 Fc (counter target) [12]).

B11: CELTIC_3s (ssDNA)
DNA: GCGTAAGGGTTTGGCAGCGGGCCTGGCGGAACGCGTGTAT
In the case of B11, the Kd [16] is reported as 156 nM, the binding result (IgG1 Fc (counter target) [3]) is reported as “no binding” and the Kd [20] is reported as 409 nM.

B12: CELTIC_core_40 (ssDNA)
DNA: GGGTTTGGCATCGGGTCTGGC
modifications: 5'-HEG
B12 was tested, and the Kd [21] was 129 nM, the Kd [7] was 0.0052 nM and the binding result (IgG1 Fc (counter target) [22]) was “no binding”.

B13: CELTIC_22s (printed CELTIC_CD3_22) (ssDNA)
DNA: CGACCACAGGGGTTTGGCTTCGGGACTGGCGGTGGGCACT
Binder B13 has a Kd [23] of 164 nM and a Kd [24] of 162 nM.

B14: CELTIC_21 (ssDNA)
DNA: TAGGGAAGAGAAGGACATATGATGGTCGGGTGCTACTGAGCGATTGGCTTTCCGGACTGGGGATTGACTAGTACATGACCACTTGA
B14 showed a Kd [25] of 56.4 nM and a Kd [26] of 49.8 nM.

B15: CELTIC_5s (ssDNA)
DNA: CGGCAGGGGTTTGGCTCCGGGTCTGGCGAACTGGCTGAGA
B15 was tested, and the Kd [15] was 120 nM, the Kd [16] was 182 nM and the binding result (IgG1 Fc (counter target) [3]) was “no binding”.
